This assay concerns the target FibrilPaint1. Kind of assay: MST.

Broadly, the Kd is a measure of binding affinity in units of concentration. A lower Kd goes with tighter binding.

The substance “E3 ligase CHIP (from UniProt Q9UNE7 23-303) (enzyme)” came in with a Kd of 1500 nM.

These data come from doi:10.1101/2024.08.27.609886.
